Results taken from US20230226096A1 (Orna Therapeutics, Inc., priority 2020, published 2023).

B1: Picornavirales sp. isolate RtMruf-PicoV (nucleic acid)
DNA: TTTGCTCAGCGTAACTTCTCCGGGTTACGTGGAGACCAAAAGGCTACGGAGACTCGGGCTACGGCCCTGGAGCACCTAGGTGCTCCTAAAGACGTTAGAAGTTGTACAAACTCGCCCAATAGGGCCCCCCAACCAGGGGGGTAGCGGGCAAGCACTTCTGTTTCCCCGGTATGATCTCATAGGCTGTACCCACGGCTGAAAGAGAGATTATCGTTACCCGCCTCACTACTTCGAGAAGCCCAGTAATGGTTCATGAAGTTGATCTCGTTGACCCGGTGTTTCCCCCACACCAGAAACCTGTGATGGGGGTGGTCATCCCGGTCATGGCGACATGACGGACCTCCCCGCGCCGGCACAGGGCCTCTTCGGAGGACGAGTGACATGGATTCAACCGTGAAGAGCCTATTGAGCTAGTGTTGATTCCTCCGCCCCCGTGAATGCGGCTAATCCCAACTCCGGAGCAGGCGGGCCCAAACCAGGGTCTGGCCTGTCGTAACGCGAAAGTCTGGAGCGGAACCGACTACTTTCGGGAAGGCGTGTTTCCTTTTGTTCCTTTTATCAAGTTTTATGGTGACAACTCCTGGTAGACGTTTTATTGCGTTTATTGAGAGATTTCCAACAATTGAACAGACTAGAACCACTTGTTTTATCAAACCCTCACAGAATAAGATAACA
B2: Niviventer confucianus picornavirus (nucleic acid)
DNA: CCCTTTCATAACCCCCCCCTTTTAACCCAACCCTTCGTAACCGTACGCTTCACTCGCCTTTGGGTATAGCGGCCCAATGTGCTGAAGAAAAGGATACGCTATAAGGGGCCAACGGGTGGTGGCCCTTAAGACCACCCAACCTAGAAGCTTGTACACTCGGGCAATAGTGAGGCCCACATCCAGTGGGTCAAGCCCAAAGCATTCTTGTTCCCCGGTATGATCTCATAAGCTGTACCCACGGCTGAAAGAGTGATTATCGTTATCCCACTCAGTACTTCGGAGAGCCTAGTACACCACTTGGAAATGGAAGTCTGTGATCCGGGGTTGACCCTGAACCCCAGAAACTCATGATGAGGCTAACCTTCCCGAACACGGCGACGTGTGGTTAGCCTGCGCTGGCATGAGGCCTCTTTGTAGGCAGACTGAAATGGAAGGGTGACGAAGAGCCGACTGAGCTACTGTTTTATTCCTCCGGCCCCCTGAATGCGGCTAATCCTAACTCCTGGTCCAGTACTTGTAACCCAACAGGTGGCTGGTCGTAATGCGTAAGCCGGGAGCGGAACCGACTACTTTGGGGCGTCCGTGTTTCTCAATATTATTCATTTCTAGCTTATGGTGACAATTTATGATTGCAGAGATTGTGCTGTATTTGTGTCTGAGAGAAGAAGTAACAAT
B3: Aichivirus A FSS693 (nucleic acid)
DNA: CACCCATACACCCCCACCCCCTTTTCTGTAACTCAAGTATGTGTGCTCGTAATCTTGACTCCCACGGAATGGATCGATCCGCTGGAGAACAAACTGCTAGATCCACATCCTCCCTCCCCTTGGGAGGACCTCGGTCCTCCCACATCCTCCCTCCAGCCTGACGTATCACAGGCTGTGTGAAGCCCCCGCGAAAGCTGCTCACGTGGCAATTGTGGGTCCCCCCTTCATCAAGACACCAGGTCTTTCCTCCTTAAGGCTAGCCCCGATGTGTGAATTCACATTGGGCAACTAGTGGTGTCACTGTGCGCTCCCAATCTCGGCCGCGGAGTGCTGTTCCCCAAGCCAAACCCCTGGCCCTTCACTATGTGCCTGGCAAGCATATCTGAGAAGGTGTTCCGCTGTGGCTGCCAGCCTGGTAACAGGTGCCCCAGTGTGCGTAACCTTCTTCCGTCTCCGGACGGTAGTGATTGGTTAAGATTTGGTGTAAGGTTCATGTGCCAACGCCCTGTGCGGGATGAAACCTCTACTGCCCTAGGAATGCCAGGCAGGTACCCCACCTTCGGGTGGGATCTGAGCCTGGGCTAATTGTCTACGGGTAGTTTCATTTCCAATTCTTTTATGCTGGAGTC
modifications: Aichivirus A
B4: Rhinolophus picornavirus strain Henan-Rf265 (nucleic acid)
DNA: CGGAACGTTGTATGCTCAGGGCGTAGGCACCACCCACGGGTGGTGCCTACACGTGTGGACTAAACCACACACTCTTTTCAGCACTTAGTGCTGCTATCTCTTTTTGTAACTTAGAAGTTTGTACACAATGCGTTAGGGCCACACATCCAGTGTGGTATCGCAAAGCACTTCTGTTTCCCCGGTGCTAGTAGGAGGGTGGCTGCTCCACGGCCACTTGCCGAACCCATCGTTACCCGACTCATTACTTCGCAAAGCCTAGTAACCCAGTTGAAGCAAGCCCGGCGTGTTCCGGTCAGGAAAAACCCCCCCTGGCCAGAAACATGTGATGAGGGTGGGCTATCCCCACTGGTGACAGTGAGCCCTCCCTGCGTTGGCACATGGCCCGATCTGGGCGTGGTTCTTGTGGATGCTGCCGAAGAGCCCCGTGAGCTAGTGTTTATACCGCCGGCCTCGTGAATGCGGCTAACCCTAACCCCGGAGCAGAGGCTACTGAAGCCACAGTAGTCGCTGTCGTAACGAGTAATTCTGGGATGGGACCGACTACTTTCGAGTGTCCGTGTTTCCTTTATTCTTTTATTGTTGTTTATGGTGACAAAC
B5: Caprine Kobuvirus d40 (nucleic acid, listed as Kobuvirus sp.)
DNA: GTGGCCACGCCCGGGCCACCGATACTTCCCTTCACTCCTTCGGGACTGTTGGGGAGGAACACAACAGGGCTCCCCTGTTTTCCCATTCCTTCCCCCTTTTCCCAACCCCAACCGCCGTATCTGGTGGCGGCAAGACACACGGGTCTTTCCCTCTAAAGCACAATTGTGTGTGTGTCCCAGGTCCTCCTGCGTACGGTGCGGGAGTGCTCCCACCCAACTGTTGTAAGCCTGTCCAACGCGTCGTCCTGGCAAGACTATGACGTCGCATGTTCCGCTGCGGATGCCGACCGGGTAACCGGTTCCCCAGTGTGTGTAGTGCGATCTTCCAGGTCCTCCTGGTTGGCGTTGTCCAGAAACTGCTTCAGGTAAGTGGGGTGTGCCCAATCCCTACAAAGGTTGATTCTTTCACCACCTTAGGAATGCTCCGGAGGTACCCCAGCAACAGCTGGGATCTGACCGGAGGCTAATTGTCTACGGGTGGTGTTTCCTTTTTCTTTTCACACAACTCTACTGCTGACAACTCACTGACTATCCACTTGCTCTCTTGTGCCTTTCTGCTCTGGTTCAAGTTCCTTGATTGTTTTTGACTGCTTTTCACTGCTTTTCTTCTCACAATCCTTGCTCAGTTCAAAGTC
B6: Apodemus agrarius picornavirus strain Longquan-Aa118 (nucleic acid)
DNA: TTACTCAGCGTAACTACTCCGGGTTACGTGATGAAGAAGAGGCTACGGAGATTCTCGGGCTACGGCCCTGGAGCCACTCCGGCTCCTAAAGATTTAGAAGTTTGAGCACACCCGCCCACTAGGGCCCCCCATCCAGGGGGGCAACGGGCAAGCACTTCTGTTTCCCCGGTATGATCTGATAGGCTGTAACCACGGCTGAAACAGAGATTATCGTTATCCGCTTCACTACTTCGAGAAGCCTAGTAATGATGGGTGAAATTGAATCCGTTGATCCGGTGTCTCCCCCACACCAGAAACTCATGATGAGGGTTGCCATCCCGGCTACGGCGACGTAGCGGGCATCCCTGCGCTGGCATGAGGCCTCTTAGGAGGACGGATGATATGGATCTTGTCGTGAAGAGCCTATTGAGCTAGTGTCGACTCCTCCGCCCCCGTGAATGCGGCTAATCCTAACCCCGGAGCAGGTGGGTCCAATCCAGGGCCTGGCCTGTCGTAATGCGTAAGTCTGGGACGGAACCGACTACTTTCGGGAAGGCGTGTTTCCATTTGTTCATTATTTGTGTGTTTATGGTGACAACTCTGGGTAAACGTTCTATTGCGTTTATTGAGAGATTCCCAACAATTGAACAAACGAGAACTACCTGTTTTATTAAATTTACACAGAGAAGAATTACA
B7: Bat picornavirus isolate BtRs-PicoV (nucleic acid)
DNA: TTTCAAAAGGCCCTGGGCATACGGCGTTATTCGTAACGTCGTATGTCCAGGGCGGTAGCATCAGGCCAAGGCCTGATGCTACCACGTGTGGACTAAACCACACACTCTTCTTGTGACACGTTGTGTCACCTATCCCTTTCTTGGTAACTTAGAAGCTTGTACACTTACGCACGTAGGTGCCCCACATCCAGTGGGGTTTGTGCAAAGCAATCTTGTTCCCCGGTAAACCCTGATAGGCTGTAACCACGGCCGAAACAAGGTTTGTCGTTACCCGACTCACTACTACACAAAGCCTAGTAAAGTTCAATGAAAGTGCGCAGCGTGATCCGGTCAAAACCCCCTTGACCAGAAACACATGATGAGGGTCACCAACCCCCACTGGCGACAGTGTGGTGTCCCTGCGTTGGCATGTGGCCTCGTAGAGGCGTTGCAATCTGGATTTGCTCCGAAGAGCCCCGTGTGCTAGTGTTTATACCTCCGGCCCCTTGAATGCGGCTAATCCTAACCCCCGAGCATGTACACACAAGCCAGTGTGTAGCATGTCGTAATGAGCAATTTGGGGATGGAACCGACTACTTTAGGGTGTCCGTGTTTCTCATTATTCTTTGTTTGATGTTTT
B8: Caprine Kobuvirus d50 (nucleic acid, listed as Kobuvirus sp.)
DNA: CCGGGCCACCGATACTTCCCTTCACTCCTTCGGGACTGTTGGGGAGGAACACAACAGGGCTCCCCTGTTTTCCCATTCCTTCCCCCTTTTCCCAACCCCAACCGCCGTATCTGGTGGCGGCAAGACACACGGGTCTTTCCCTCTAAAGCACAATTGTGTGTGTGTCCCAGGTCCTCCTGCGTACGGTGCGGGAGTGCTCCCACCCAACTGTTGTAAGCCTGTCCAACGCGTCGTCCTGGCAAGACTATGACGTCGCATGTTCCGCTGCGGATGCCGACCGGGTAACCGGTTCCCCAGTGTGTGTAGTGCGATCTTCCAGGTCCTCCTGGTTGGCGTTGTCCAGAAACTGCTTCAGGTAAGTGGGGTGTGCCCAATCCCTACAAAGGTTGATTCTTTCACCACCTTAGGAATGCTCCGGAGGTACCCCAGCAACAGCTGGGATCTGACCGGAGGCTAATTGTCTACGGGTGGTGTTTCCTTTTTCTTTTCACACAACTCTACTGCTGACAACTCACTGACTATCCACTTGCTCTCTTGTGCCTTTCTGCTCTGGTTCAAGTTCCTTGATTGTTTTTGACTGCTTTTCACTGCTTTTCTTCTCACAATCCTTGCTCAGTTCAAAGTC

Test system: HEK293 cells
Type: cell-based, human
Settings: luminescence from secreted Gluc in supernatant 24 hours after transfection of HEK293 cells; circular RNA encoding Gluc with the named IRES (UTR truncated to 675 nt)

| Molecule | Expression |
| --- | --- |
| B1 | 2.26E+08 |
| B2 | 6.10E+07 |
| B3 | 6.25E+07 |
| B4 | 3.85E+05 |
| B5 | 2.15E+08 |
| B6 | 1.90E+08 |
| B7 | 1.13E+06 |
| B8 | 9.65E+07 |
